From PMC2850911

Legend:
[1] = biological target: Entamoeba histolytica Phosphoserine aminotransferase (Entamoeba histolytica); assay: SEC; Superdex 200 10/300 GL column, EhPSAT at pH 6, 7, 8 and 9; calibrated with ferritin, aldolase, conalbumin and ovalbumin; also run with 200 mM NaCl or NaF
[2] = biological target: Entamoeba histolytica Phosphoserine aminotransferase (Entamoeba histolytica); assay: cross-linking; glutaraldehyde cross-linking of EhPSAT incubated at pH 9, 8, 7 and 6, analysed on 10% SDS-PAGE

Entamoeba histolytica Phosphoserine aminotransferase (enzyme)
stoichiometry N [1]: 2 | stoichiometry N [2]: 2
